Among the data in paper PMC7139957 are rupture force values, retold here.

This test addresses laminin-111 (UniProt P19137). The test is described as follows: AFM single-molecule force spectroscopy; integrin coupled to PEG-functionalized cantilever, laminin-111 (3 µg/mL) coated on mica; contact 1 s, retraction 300 nm/s; rupture force of the last contact.

“soluble recombinant integrin α7wtβ1 ectodomains, heterodimerized with the zipper domains of Fos and Jun (from UniProt P05556 21-728) (complex)” had a rupture force of 30 pN.
“soluble recombinant integrin α7hiβ1 ectodomains (hinge mutant, C604 and C610 replaced by alanine), heterodimerized with the zipper domains of Fos and Jun (from UniProt P05556 21-728) (complex)” yielded a rupture force of 16 pN.
